# From patent US7056679 (ANTYRA, dated 2006)
# No end group written: not given here.
# T1: DGI-2 (UniProt Q15004 1-111, limits assumed)
# T1 construct: Soluble recombinant DGI-2 made by in vitro translation (RTS, pIVEX2.3-MCS vector) and coated on plates for the ELISA; vector tag not described; also called KIAA0101; DGI-2 polypeptide
# T1 sequence (looked up): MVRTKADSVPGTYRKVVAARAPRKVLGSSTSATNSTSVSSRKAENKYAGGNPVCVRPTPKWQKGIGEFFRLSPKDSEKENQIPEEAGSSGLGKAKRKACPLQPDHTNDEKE
# T2: DGI-2 polypeptide (UniProt Q15004 1-111, limits assumed)
# T2 construct: Soluble recombinant protein coated at 500 ng/well; vector tag of pIVEX2.3-MCS not described for this construct; also called KIAA0101
# T2 sequence (looked up): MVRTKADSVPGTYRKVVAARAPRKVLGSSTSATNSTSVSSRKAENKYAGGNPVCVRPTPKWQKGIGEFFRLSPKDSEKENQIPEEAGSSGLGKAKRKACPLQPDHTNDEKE
# Tests used:
# DGI-2 = molecular target: T1, DGI-2; test: phage ELISA, coated DGI-2
# How it was run: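 Phage from individual clones were bound for 2 h at RT to wells coated with 500 ng DGI-2, LDH (non-specific), anti-E-tag antibody (positive control) or milk (negative control). Bound phage were detected with HRP-anti-M13 and ABTS at A405; positive clones gave ≥2-fold signal over background.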
# [1] = molecular target: T3, antibody raised against ETAG; test: phage ELISA
# T3 construct: Coated at 500 ng/well; also called E-tag antibody
# Method: (§1) For analysis of individual target binders, colonies were picked and phage prepared as described above using helper phage, M13KO7. Ninety-six-well microtiter plates were coated with 500 ng/well of specific target protein, 500 ng/well lactate dehydrogenase (LDH) irrelevant or non-specific target, 500 ng/well of positive control antibody raised against ETAG, and negative control of non-fat milk powder-PBS 2% at 4° C. overnight. Plates were then blocked with 350 microliters/well PBS containing 2% non-fat milk for 1 hr at room temperature. One hundred microliters per well of phage from isolated clones were added and plates were incubated at room temperature for 2 hr after centrifuging samples for 20 minutes at 3500 rpm at 4° C. The phage solution was then removed, and the wells were washed three times with PBS at room temperature. Antibody raised against M13 conjugated to horseradish peroxidase (Pharmacia) was diluted 1:3000 in PBS-Tween and added to each well (100 µl/well). Incubation was for 1 hr at room temperature, followed by washing with PBS-(0.5%) Tween 3 times as described. Color was developed by addition of ABTS solution (100 µl/well; Boehringer, Indianapolis, Ind.). Plates were analyzed at 405 nm. A clone was considered "positive" if the $A405$ of the well was $\geq$2-fold over background.
# DGI-2 polypeptide = molecular target: T2, DGI-2 polypeptide; test: phage ELISA
# Method: as §1
# [2] = molecular target: T4, lactate dehydrogenase (LDH); test: phage ELISA
# T4 construct: Coated at 500 ng/well as non-specific target; also called LDH polypeptide
# Method: as §1
binder,measurement,setting,value
"WGCVFRQWASGSGAGCARRH (not fully specified; cysteine pairing not given here, on M13 phage, pIII fusion with E-tag) [DGI-2-20R-3-D9]",binding result,DGI-2,binds
"RRILPWSFPGCGRMC (not fully specified; cysteine pairing not given here, on M13 phage, pIII fusion with E-tag) [DGJ-2-20R-3-A10]",binding result,DGI-2,binds
"QLDCLVWGLPGLRCDRPLEQ (not fully specified (bridges); cysteine pairing not given here, on M13 phage, pIII fusion with E-tag) [DGI-2-20R-3-B10]",binding result,DGI-2,binds
"VLGADAGMIWFMDGCGIRCR (not fully specified; cysteine pairing not given here, on M13 phage, pIII fusion with E-tag) [DGI-2-20R-4-E6]",binding result,DGI-2,binds
"VSFAHDWGRWWYQWEVG (on M13 phage, pIII fusion with E-tag) [DGI-2-20R-4-G22]",binding result,DGI-2,binds
"SWACGLLWPGECGSQVARRG (not fully specified; cysteine pairing not given here, on M13 phage, pIII fusion with E-tag) [DGI-2-20R-3-D127]",binding result,DGI-2,binds
ERVSKCVGRGSGRSVGQFGGAAAGAPVPYPDPLEPRP,ETAG (OD),[1],11.1 OD
same,DGI-2 (OD),DGI-2 polypeptide,3 OD
same,DGI-2/LDH,DGI-2 polypeptide,3.4 ratio
same,LDH (OD),[2],0.9 OD
"DRVARLATPTAGTMAAGSLGYERTVGCDSQDWFRCVVEGL (on M13 phage, pIII fusion with E-tag) [DGI-2-40F-3-D1044]",binding result,DGI-2,binds
"ERVSKCVGRGSGRSVGQFGG (on M13 phage, pIII fusion with E-tag)",binding result,DGI-2,binds
"QVGGMTQVGATVLSVVTGRGSCDGEDAWYPPGVTVGLGLC (on M13 phage, pIII fusion with E-tag) [DGI-2-40F-4-F97]",binding result,DGI-2,binds
VCSGGKGTWLEIPDRVRSSTAAAGAPVPYPDPLEPRP [DGI-2-20F-PP-A22],ETAG (OD),[1],44.1 OD
same,DGI-2 (OD),DGI-2 polypeptide,3.3 OD
same,DGI-2/LDH,DGI-2 polypeptide,3.1 ratio
same,LDH (OD),[2],1 OD
SLFERSARSRYHGSPDCNGSAAAGAPVPYPDPLEPRP [DGI-2-20F-PP-A3],ETAG (OD),[1],12.9 OD
same,DGI-2 (OD),DGI-2 polypeptide,2.8 OD
same,DGI-2/LDH,DGI-2 polypeptide,2.4 ratio
same,LDH (OD),[2],1.2 OD
EVFVSVWVFRFRVMPVTPGGTAAAGAPVPYPDPLEPRP [DGI-2-20F-PP-E6],ETAG (OD),[1],4.1 OD
same,DGI-2 (OD),DGI-2 polypeptide,3 OD
same,DGI-2/LDH,DGI-2 polypeptide,2.6 ratio
same,LDH (OD),[2],1.2 OD
"RDTTSQWSWISRGWEFPGWR (on M13 phage, pIII fusion with E-tag) [DGI-2-20R-3-C2]",binding result,DGI-2,binds
RGSLLLTLPRLSGAVGTAYGAAAGAPVPYPDPLEPRP [DGI-2-20F-PP-B3],ETAG (OD),[1],11.7 OD
same,DGI-2 (OD),DGI-2 polypeptide,3.4 OD
same,DGI-2/LDH,DGI-2 polypeptide,3 ratio
same,LDH (OD),[2],1.1 OD
LGRTFVWGTCLHLSVSRFGHAAAGAPVPYPDPLEPRP [DGI-2-20F-PP-C3],ETAG (OD),[1],39.9 OD
same,DGI-2 (OD),DGI-2 polypeptide,5.3 OD
same,DGI-2/LDH,DGI-2 polypeptide,5.1 ratio
same,LDH (OD),[2],1 OD
"QMSRVAFSPGESWRRWVEGV (on M13 phage, pIII fusion with E-tag) [DGI-2-20R-3-A2]",binding result,DGI-2,binds
VCGQRVARMQLNKTIRKLDSAAAGAPVPYPDPLEPRP [DGI-2-20F-PP-A6],ETAG (OD),[1],35.1 OD
same,DGI-2 (OD),DGI-2 polypeptide,3.1 OD
same,DGI-2/LDH,DGI-2 polypeptide,2.8 ratio
same,LDH (OD),[2],1.1 OD
"EGNWFCAVFRGFCVGDRGPE (not fully specified (bridges); cysteine pairing not given here, on M13 phage, pIII fusion with E-tag) [DGI-2-20R-3-A1]",binding result,DGI-2,binds
"WAASCFWGHVALGCGRNGQG (not fully specified (bridges); cysteine pairing not given here, on M13 phage, pIII fusion with E-tag) [DGI-2-20R-3-A11]",binding result,DGI-2,binds
GRAGTSMTELVAWGFVQRVGAAAGAPVPYPDPLEPRP [DGI-2-20F-PP-H10],ETAG (OD),[1],13 OD
same,LDH (OD),[2],0.7 OD
"SLECWAMPGMVVRLVGCDGP (not fully specified (bridges); cysteine pairing not given here, on M13 phage, pIII fusion with E-tag) [DGI-2-20R-4-H112]",binding result,DGI-2,binds
GLYQRGLAPRCRGERFGVRNAAAGAPVPYPDPLEPRP [DGI-2-20F-PP-C2],ETAG (OD),[1],6 OD
same,DGI-2 (OD),DGI-2 polypeptide,2.7 OD
same,DGI-2/LDH,DGI-2 polypeptide,2.5 ratio
same,LDH (OD),[2],1.1 OD
"RDTMCGSVSWGIPGCEYSGM (not fully specified; cysteine pairing not given here, on M13 phage, pIII fusion with E-tag) [DGI-2-20R-4-G122]",binding result,DGI-2,binds
RSYPRLCKQKGGVIGRMLPGAAAGAPVPYPDPLEPRP [DGI-2-20F-PP-B2],ETAG (OD),[1],35.9 OD
same,DGI-2 (OD),DGI-2 polypeptide,3.3 OD
same,DGI-2/LDH,DGI-2 polypeptide,2.9 ratio
same,LDH (OD),[2],1.1 OD
"DQRVVGSGWFERLRNWYDRA (on M13 phage, pIII fusion with E-tag) [DGI-2-20R-4-G99]",binding result,DGI-2,binds
"RSIRLQLIDEACQFFDGLCT (not fully specified; cysteine pairing not given here, on M13 phage, pIII fusion with E-tag) [DGI-2-20R-3-A8]",binding result,DGI-2,binds
GSTRLRVTVRFCSETGTPGCAAAGAPVPYPDPLEPRP [DGI-2-20F-PP-G6],ETAG (OD),[1],36.1 OD
same,DGI-2 (OD),DGI-2 polypeptide,2.7 OD
same,DGI-2/LDH,DGI-2 polypeptide,2.5 ratio
same,LDH (OD),[2],1.1 OD
VVHTRAWGSWAYGFVLRNRGAAAGAPVPYPDPLEPRP [DGI-2-20F-PP-F10],ETAG (OD),[1],42.5 OD
same,DGI-2 (OD),DGI-2 polypeptide,3.5 OD
same,DGI-2/LDH,DGI-2 polypeptide,2.8 ratio
same,LDH (OD),[2],1.3 OD
"RERWGTAWNLWTEGVVDVRP (on M13 phage, pIII fusion with E-tag) [DGI-2-20F-3-B5]",binding result,DGI-2,binds
SIILAGCVWVMPCGQNLGGVAAAGAPVPYPDPLEPRP [DGI-2-20F-PP-C4],ETAG (OD),[1],36.1 OD
same,DGI-2 (OD),DGI-2 polypeptide,3 OD
same,DGI-2/LDH,DGI-2 polypeptide,3.2 ratio
same,LDH (OD),[2],0.9 OD
VRAVYSRDAYNEVGRWMRVGIAAAGAPVPYPDPLEPRP [DGI-2-20F-PP-D9],ETAG (OD),[1],9 OD
same,DGI-2 (OD),DGI-2 polypeptide,2.9 OD
same,DGI-2/LDH,DGI-2 polypeptide,2.9 ratio
same,LDH (OD),[2],1 OD
RVSYEMLGRRRRSMHGSSMRAAAGAPVPYPDPLEPRP [DGI-2-20F-PP-A4],ETAG (OD),[1],6.6 OD
same,DGI-2 (OD),DGI-2 polypeptide,2.7 OD
same,DGI-2/LDH,DGI-2 polypeptide,2.6 ratio
same,LDH (OD),[2],1.1 OD
YAMSSRECGIRNSGLILSMWAAAGAPVPYPDPLEPRP [DGI-2-20F-PP-C9],ETAG (OD),[1],31.6 OD
same,DGI-2 (OD),DGI-2 polypeptide,3.5 OD
same,DGI-2/LDH,DGI-2 polypeptide,3.9 ratio
same,LDH (OD),[2],0.9 OD
GITGLFCLCLRSSQSIAAAGAPVPYPDPLEPRP [DGI-2-20F-P0P-D6],ETAG (OD),[1],5.7 OD
same,DGI-2 (OD),DGI-2 polypeptide,3.3 OD
same,DGI-2/LDH,DGI-2 polypeptide,3.2 ratio
same,LDH (OD),[2],1 OD
"WWERFVWGRPVDDGVVVMAT (on M13 phage, pIII fusion with E-tag) [DGI-2-20R-3-B1]",binding result,DGI-2,binds
SSVWATWGSDLRTFGSVGFLAAAGAPVPYPDPLEPRP [DGI-2-20F-PP-C7],ETAG (OD),[1],11 OD
same,DGI-2 (OD),DGI-2 polypeptide,3 OD
same,DGI-2/LDH,DGI-2 polypeptide,2.6 ratio
same,LDH (OD),[2],1.1 OD
DRSRAPLCADKSGRWQRYRRAAAGAPVPYPDPLEPRP [DGI-2-20F-PP-C10],ETAG (OD),[1],8.6 OD
same,DGI-2 (OD),DGI-2 polypeptide,2.7 OD
same,DGI-2/LDH,DGI-2 polypeptide,3.1 ratio
same,LDH (OD),[2],0.9 OD
